Laboratory results: the supplement of paper PMC12042874
± gives the uncertainty stated by the source.

assay: amyloid nucleation score (Sup35N fusion, yeast selection) (log enrichment); library NNK3; higher = more nucleation; inactive = no reads after selection
Method in brief: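 The nucleation score is the DiMSum log enrichment of output over input reads, centred on the mode score of non-aggregating sequences. Only sequences with 100 or more input reads were scored, using Illumina sequencing of input and output plasmid inserts. Psi-negative yeast expressing Sup35N fused to peptides of 20 random codons were induced 24 hours with 100 μM copper sulfate and grown 7 days at 30°C on medium lacking adenine and uracil.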

| Substance | amyloid nucleation score |
| --- | --- |
| EADPYIPKSVFGVGFNGHVV | inactive |
| ISRGVVIGTFRRLIERSCGT | inactive |
| GPVSYHMRCLYTGLSIPHLF | inactive |
| FISINTPPCLCMS | inactive |
| AMSIVERQGDVWLSYRKWNG | inactive |
| KCYLKSGLDNLVYDLD | inactive |
| PMAELIWDLVLRLKLSNKKR | 1.43 ± 0.074 |
| ATICYEVRWEPDSSPGRS | inactive |
| YERSRMSVWRNT | inactive |
| YLDSSSS | inactive |
| CIRICNISFFL | 2.71 ± 0.075 |
| FGADSDQHLRRLLGAEGWCR | inactive |
| TCNYMSGGFALRFTISYGGA | inactive |
| MILTKSNSEVFEVGNKKLRV | inactive |
| SKKYFVHFILVNNFGVGY | inactive |
| YLVFFA | inactive |
| VDLRSLSPGYIDFTVISPLL | -0.952 ± 0.83 |
| FVCSARYNSFRFKATVHNSR | inactive |
| MLWRTDHMYY | inactive |
| NSIAYMVWILALDCCNWGSQ | 2.85 ± 0.07 |
| TVPIMNVPD | -0.428 ± 0.8 |
| KSQLFLMWSSSKLLTYTVQA | inactive |
| FVYTDVCSQFFRMGHFDTSY | -0.21 ± 0.7 |

| Substance | amyloid nucleation score |
| --- | --- |
| VSKLWSYLVLYPHWV | inactive |
| DVRKRSFIYVCNRSLVVPFR | inactive |
| NLIVKSNYGAGNDMRCGDYT | inactive |
| YKFSVTTL | inactive |
| LNGASADRRDWAEWLKADHC | inactive |
| HDYDAIRRLSRMCDVVEYSR | inactive |
| LCRLGSSRSVSGVRLGCTLR | inactive |
| WSYTAKGVW | inactive |
| ECENMHDTKDLGLTDGVYII | inactive |
| GLAQTSLFI | inactive |
| VRVLFGPFYYVFGSYLIGLV | inactive |
| CYLFVLL | inactive |
| VTASSPDLIGGVHMEWRLTC | inactive |
| RYRIPTSFL | inactive |
| TVLFEIYMNEVMNGFLICST | inactive |
| HFNRVLVPYAFSFIGKMEWF | inactive |
| LHCTLSNSLSYLHDIQQLLH | inactive |
| LDFKIPRN | inactive |
| RYTIGFHLSMDSAYSISFYP | inactive |
| YYGFYTNYFMCGV | 2.77 ± 0.062 |
| KRLFVTFFLSSLRGNILMWG | inactive |
| AYSYRGHGLGMDGAGPVCLI | inactive |
| VDVDCYLLSKNM | inactive |

| Substance | amyloid nucleation score |
| --- | --- |
| FGTLSQVHIH | inactive |
| FIMMRIMSFPISHVCV | 0.708 ± 0.27 |
| FPDIDLLLLWTHQRDRRSWF | 0.018 ± 0.45 |
| MGFVHINGQCTQLLCCSRLK | 1.94 ± 0.072 |
| QDFRLLSALRF | inactive |
| SRDTVRVLNLLGRKALMRGQ | inactive |
| LNVVKNYIGLVRRHIIRVHF | inactive |
| WLLTM | inactive |
| EVTSYVVFSFLIFTSMFHCK | -0.464 ± 0.36 |
| CVSNISSFGKLEFTYVIEVW | inactive |
| TATLAC | inactive |
| GIFKFMAV | inactive |
| VWQYNDGSYCVVMYVSSSDY | 1.06 ± 0.19 |
| YHCSLQIFVLNSWMSSYKWS | 1.86 ± 0.098 |
| YVNFFVKVSV | inactive |
| MIRWAYLCM | inactive |
| PSRNYIVELS | inactive |
| RCLGLML | inactive |
| RRSLHCIDCSRFPLIFHCTV | inactive |
| TTSRNRIGRGLCGLAS | -0.115 ± 0.48 |
| LMGTSIPSKQADLGTEFSNF | inactive |
| RYYLFLVPSGVWGYVVLRDS | 0.656 ± 0.21 |
| DPSCGECFKA | 0.961 ± 0.1 |

| Substance | amyloid nucleation score |
| --- | --- |
| KCSFFMFAVEKEAKNWMVTN | inactive |
| FDTWFLRFRTNDVYLKVFFY | inactive |
| GDGNRWDRTGSCHLQGAYCR | inactive |
| IITYKVS | inactive |
| HMPDFVCLFNHVMPWIWIRV | inactive |
| HCVNRRKQYVRIRTYARLPC | inactive |
| VCTYNLAFGYFGVVWLTFVV | -0.519 ± 0.82 |
| TTLVGHASPVKAMTGTFTWH | inactive |
| GRWGGDYFCVGNFMG | inactive |
| SYQWWLCFFSLFFIGGDFRT | inactive |
| DHWLLQYERRCKLGGFGY | inactive |
| TKDGHYA | inactive |
| IYGNFS | inactive |
| HNQTDSASVIWFSYVWAFVG | inactive |
| ILSITC | inactive |
| FNVFLSLATGISDGYYMLTA | inactive |
| RRARFFVHAQVRWVCFWAMK | inactive |
| PRTSKFVAVAFKV | inactive |
| LTYHLFYMVADACVIWYDCS | 0.833 ± 0.32 |
| VGTIVFVFSFASWPRVGYIR | inactive |
| SPFLKTTVAGLGSPRELSIR | inactive |
| GDLGDVPGRWDWNKSWFVNY | inactive |
| NDSTHLRSRC | inactive |

| Substance | amyloid nucleation score |
| --- | --- |
| VSHRYFTGRMIALIRGDCLV | inactive |
| SDGDVMFLVKIEAGAFSGGM | inactive |
| VYEGFQVWNDGLPDLVRFGV | inactive |
| SACVGFMGPRNIRL | inactive |
| FHWYFLCLAFLG | 0.398 ± 0.3 |
| SFGTLQKVK | inactive |
| WHSKKLRICHLGCFVQTDWV | inactive |
| TCNKLIVRLCDAHKERA | 0.745 ± 0.13 |
| LKSIYLLKWCPTSQLRTTSV | inactive |
| SLGKPSHREFYDFVVAAKTT | inactive |
| LHGNYVGQLLDLEIPVRGWI | inactive |
| INAQS | inactive |
| LYMDYLQNVNLYGMFI | inactive |
| GLFCNVFMNKCSS | inactive |
| DLMLWKNFSLFTRESRGFAN | inactive |
| SSKYISFSTTSYCTGLYRTP | 0.896 ± 0.16 |
| LRRQSVMWDKSYAGTWILES | inactive |
| CTLGHCMKLSMSSFPAVGKV | inactive |
| FVCCYVYAQQLRRRYIFNLS | inactive |
| RVITCWSQQCWHDRCLVCGK | inactive |
| VTLDEFRIISHCSYSFCYEG | inactive |
| TAIYIDRNECSLKVYRIKDK | 0.612 ± 0.44 |
| QQCCTLVCWRRMI | inactive |

| Substance | amyloid nucleation score |
| --- | --- |
| YKTYKYERLCIFVLSQRESI | inactive |
| GTPALCQ | inactive |
| LLMDGLIRFWS | inactive |
| DTSKNYAIYFGKLGDWSARS | -0.01 ± 0.96 |
| AGDGHLSLS | inactive |
| NYCDIYQGSNIF | inactive |
| IQGVAWVQKAWFSRKAGVQI | inactive |
| FEFYTMWSIWARVLFPLKIY | inactive |
| NVYMHAMCRWDVQGTAR | inactive |
| VLPNIQFFYCMCWVMLYLPF | inactive |
| YNNVCSEAEWS | inactive |
| NIAIGLYRFKMLDGKRSCML | inactive |
| GVSRGLSLPRSLKYRYCCAV | inactive |
| FHLYNVW | inactive |
| PVYCDCSYVREGVTITITIH | inactive |
| MMPIRKKMNHRVTWEILWQR | inactive |
| LRWIGH | inactive |
| RTSLGSCKYHLVFFYRVLVW | inactive |
| YRYRACSSNFYVTVFGQLHV | 2.33 ± 0.063 |
| IVREVGTA | inactive |
| RRMTSYFL | inactive |
| NWWIRGS | -0.185 ± 0.82 |
| GLLFCSL | -0.248 ± 0.34 |

| Substance | amyloid nucleation score |
| --- | --- |
| NVLFRMTRHAYSKLTWLFKR | inactive |
| ILRYVLAHSVLKTCLMQGLA | inactive |
| MSSNFTRS | inactive |
| YVFKYVEEVSHFSLFLWTKS | inactive |
| DEIACPYSAWLRMSMPEARS | inactive |
| YANQHSPEHQRLSSRLVGTN | inactive |
| VNCTNLRKPLQLTQ | inactive |
| GSWDI | inactive |
| NLVLCN | inactive |
| EHRLVDCDVWVR | 2.82 ± 0.077 |
| NWVLARIWW | 0.755 ± 0.18 |
| SPKFVRWGRQVVSSVRA | inactive |
| GSSYGVIIVQYYP | 2.02 ± 0.076 |
| GFRFNKIRMSPDSNTLCGCA | inactive |
| MSYSGTAHGDFLLRSCPARM | inactive |
| TSYVEVGFLVSKYQTWWAVN | inactive |
| ILLWFSTVNWSFANEPGQIL | inactive |
| YVGFLSSCFF | 1.19 ± 0.14 |
| SRMDNSDTIYNILLWTSSYS | inactive |
| QFIINDSFYINQNNRRYSKV | inactive |
| ITNVWSVFKIRIGNCGFGAG | 1.9 ± 0.1 |
| PVLQIIRLADRLWLDIG | inactive |
| KYQLHYLDVFFYDVV | inactive |
